The values that follow come from PMC9458429.

Holding throughout (test): filter binding
Series [1] concerns 30S ribosomal subunit (Escherichia coli MRE600). Conditions: Filter binding: 50 nM 32P-RNA in TAKM5 buffer (composition not given), 15 min at 37 C, nitrocellulose filtration, fluorescence titrations: pyrene, ex 341 nm ….
Series [2] concerns 70S ribosome (Escherichia coli MRE600). Conditions: Filter binding: 50 nM 32P-RNA in TAKM5 buffer (composition not given), 15 min at 37 C, nitrocellulose filtration, fluorescence titrations: pyrene, ex 341 nm ….
Series [3] relates to 40S ribosomal subunit ((HeLa cells)). The following applies: Filter binding: 50 nM 32P-RNA in TAKM5 buffer (composition not given), 15 min at 37 C, nitrocellulose filtration; fluorescence titrations: pyrene, ex 341 nm ….

Broadly, the Kd is the free concentration of one partner at which half of the binding sites on the other are occupied at equilibrium, for simple one-to-one binding. A high value points to weaker binding. “GAGCGGUUUCUGGAAUACUAUAUGUAAGUAUAGUGUUCUGGAGGCAUCAUUCUAUGGUUACCCAUCAUUAGAGGAAAUUUCCAAUAAACUCUGGUGUAAGGCUUAGAGUGAUGGUCGAGGUGCCCUAUUUAGGGUGAGGAGCCUCGGUGGCAGCCCCUGGAAAUCCUCUAUUGGAUAGGAACAGCUGUACUGGGCAGUUACAGCAGUCGUAUGGUAACACAUGCGGCGUUCCGAAAUACCAUGGGUGGCGAUUCACAACAAGAA [IAPV IGR IRES PK1+3_K/O]”: the Kd in series [1] came to 80 nM; in series [2], 65 nM.
For the sequence “GCGCGGAUGCUCAGUCGGUAGAGCAGGGGAUUGAAAAUCCCCGUGUCCUUGGUUCGAUUCCGAGUCCGCGCACCA [tRNAPhe]”, in series [1] (only 10% bound), the Kd was found to be 35 nM.
In the case of “AAAGCAAAAAUGUGAUCUUGCUUGUAAAUACAAUUUUGAGAGGUUAAUAAAUUACAAGUAGUGCUAUUUUUGUAUUUAGGUUAGCUAUUUAGCUUUACGUUCCAGGAUGCCUAGUGGCAGCCCCACAAUAUCCAGGAAGCCCUCUCUGCGGUUUUUCAGAUUAGGUAGUCGAAAAACCUAAGAAAUUUAGGUGCUACAUUUCAAGAUAAA [CrPV IGR IRES PK1_K/O]”, the dissociation constant Kd is 55 nM in series [1], 4 nM in series [3] and 92 nM in series [2].
With “GAGCGGUUUCUGGAAUACUAUAUGUAAGUAUAGUGUUCUGGAGGCAUCAUUCUAUGGUUACCCAUCAUUAGAGGAAAUUUCCAAUAAACUCUGGUGUAAGGCUUAGAGUGAUGGUCGAGGUGCCCUAUUUAGGGUGAGGAGCCUCGGUGGCAGCCCCUGGAAAUCCUCUAUUGGAUAGGAACAGCUGUACUGGGCAGUUACAGCAGUCGUAUGGUAACACAUGCGGCGUUCCGAAAUACCAUGCCUGGCGAUUCACAACAAGAA [IAPV IGR IRES PK3_K/O]”, the values for the Kd in series [1] and in series [2] were 103 nM and 59 nM, respectively.
Taken in the same sequence, the figures for “AAAGCAAAAAUGUGAUCUUGCUUGUAAAUACAAUUUUGAGAGGUUAAUAAAUUACAAGUAGUGCUAUUUUUGUAUUUAGGUUAGCUAUUUAGCUUUACGUUCCAGGAUGCCUAGUGGCAGCCCCACAAUAUCCAGGAAGCGGAGAGUGCGGUUUUUCAGAUUAGGUAGUCGAAAAACCUAAGAAAUUUACCUGCUACAUUUCAAGAUAAA [CrPV IGR IRES PK2_K/O]” were 74 nM and 100 nM.
For “GAGCGGUUUCUGGAAUACUAUAUGUAAGUAUAGUGUUCUGGAGGCAUCAUUCUAUGGUUACCCAUCAUUAGAGGAAAUUUCCAAUAAACUCUGGUGUAAGGCUUAGAGUGAUGGUCGAGGUGCCCUAUUUAGGGUGAGGAGCCUCGGUGGCAGCCCCACCAAAUCCUCUAUUGGAUAGGAACAGCUGUACUGGGCAGUUACAGCAGUCGUAUGGUAACACAUGCGGCGUUCCGAAAUACCAUGCCUGGCGAUUCACAACAAGAA [IAPV IGR IRES WT]” the same measures were 93 nM and 50 nM.
Taken in the same sequence, the figures for “GAGCGGUUUCUGGAAUACUAUAUGUAAGUAUAGUGUUCUGGAGGCAUCAUUCUAUGGUUACCCAUCAUUAGAGGAAAUUUCCAAUAAACUCUGGUGUAAGGCUUAGAGUGAUGGUCGAGGUGCCCUAUUUAGGGUGAGGAGCCUCGGUGGCAGCCCCACCAAAUCCUCUUAACCAUAGGAACAGCUGUACUGGGCAGUUACAGCAGUCGUAUGGUAACACAUGCGGCGUUCCGAAAUACCAUGCCUGGCGAUUCACAACAAGAA [IAPV IGR IRES PK2_K/O]” were 81 nM and 59 nM.
Consider “AAAGCAAAAAUGUGAUCUUGCUUGUAAAUACAAUUUUGAGAGGUUAAUAAAUUACAAGUAGUGCUAUUUUUGUAUUUAGGUUAGCUAUUUAGCUUUACGUUCCAGGAUGCCUAGUGGCAGCCGGUGAAUAUCCAGGAAGCCCUCUCUGCGGUUUUUCAGAUUAGGUAGUCGAAAAACCUAAGAAAUUUAGGUGCUACAUUUCAAGAUAAA [CrPV IGR IRES PK1+3_K/O]”, for which the figures for the Kd in series [1] and in series [2] were 52 nM and 78 nM, respectively.
For “GAGCGGUUUCUGGAAUACUAUAUGUAAGUAUAGUGUUCUGGAGGCAUCAUUCUAUGGUUACCCAUCAUUAGAGGAAAUUUCCAAUAAACUCUGGUGUAAGGCUUAGAGUGAUGGUCGAGGUGCCCUAUUUAGGGUGAGGAGCCUCGGUGGCAGCCCCACCAAAUCCUCUAUUGGAUAGGAACAGCUGUACUGGGCAGUUACAGCAGUCGUAUGGUAACACAUGCGGCGUUCCGAAAUACCAUGGGUGGCGAUUCACAACAAGAA [IAPV IGR IRES PK1_K/O]” the same measures were 87 nM and 67 nM.
For “AAAGCAAAAAUGUGAUCUUGCUUGUAAAUACAAUUUUGAGAGGUUAAUAAAUUACAAGUAGUGCUAUUUUUGUAUUUAGGUUAGCUAUUUAGCUUUACGUUCCAGGAUGCCUAGUGGCAGCCGGUGAAUAUCCAGGAAGCGGAGAGUGCGGUUUUUCAGAUUAGGUAGUCGAAAAACCUAAGAAAUUUAGGUGCUACAUUUCAAGAUAAA [CrPV IGR IRES PK1+2+3_K/O]” the same measures were 48 nM and 79 nM.
Regarding “AAAGCAAAAAUGUGAUCUUGCUUGUAAAUACAAUUUUGAGAGGUUAAUAAAUUACAAGUAGUGCUAUUUUUGUAUUUAGGUUAGCUAUUUAGCUUUACGUUCCAGGAUGCCUAGUGGCAGCCCCACAAUAUCCAGGAAGCCCUCUCUGCGGUUUUUCAGAUUAGGUAGUCGAAAAACCUAAGAAAUUUACCUGCUACAUUUCAAGAUAAA [CrPV IGR IRES WT]”, the values for the Kd in series [1], in series [3] and in series [2] were 110 nM, 14 nM and 69 nM, respectively.
As for “AAAGCAAAAAUGUGAUCUUGCUUGUAAAUACAAUUUUGAGAGGUUAAUAAAUUACAAGUAGUGCUAUUUUUGUAUUUAGGUUAGCUAUUUAGCUUUACGUUCCAGGAUGCCUAGUGGCAGCCCGUGAAUAUCCAGGAAGCCCUCUCUGCGGUUUUUCAGAUUAGGUAGUCGAAAAACCUAAGAAAUUUACCUGCUACAUUUCAAGAUAAA [CrPV IGR IRES PK3_K/O]”, the Kd in series [1] was 48 nM; in series [2] it was 90 nM.
For “GAGCGGUUUCUGGAAUACUAUAUGUAAGUAUAGUGUUCUGGAGGCAUCAUUCUAUGGUUACCCAUCAUUAGAGGAAAUUUCCAAUAAACUCUGGUGUAAGGCUUAGAGUGAUGGUCGAGGUGCCCUAUUUAGGGUGAGGAGCCUCGGUGGCAGCCCCUGGAAAUCCUCUUAACCAUAGGAACAGCUGUACUGGGCAGUUACAGCAGUCGUAUGGUAACACAUGCGGCGUUCCGAAAUACCAUGGGUGGCGAUUCACAACAAGAA [IAPV IGR IRES PK1+2+3_K/O]” the same measures were 73 nM and 72 nM.
Take “GGAUACGCACAAUAAGGCUAUUGUACGUAUGCAAAUUAAUAAUAAAGGAGAGUAGCAAUGUCAUUCGAAUUACCUGCACUACCAUAUGCUAAAGAUGCUCUGGCACCGCACAUUUCUGCGG [sodB 5' UTR RNA]”: the Kd was 13 nM in series [1] (41% bound) and 47 nM in series [2] (56% bound).
On to “GGUACGAGUAGAAUACUGCCGCUUAACGUCGCGUAAAUUGUUUAACACUUUGCGUAACGUACACUGGGAUCGCUGAAUUAGAGAUCGGCGUCCUUUCAUUCUAUAUACUUUGGAGUUUUAAAAUGUCUCAAGUACUGAAGCAACAGCUAAAAUCGUUUCUGAGUUUGGUCGUGACGCAAACGACACC [rpsO 5' UTR RNA]”, for which the Kd in series [1] (39% bound) was found to be 10 nM; in series [2] (44% bound) it was 94 nM.
